B1: Ani s 3 (Anisakis tropomyosin) (natural protein, Anisakis simplex, UniProt Q9NAS5 1-284, looked up)
chain: MDAIKKKMQAMKIEKDNALDRADAAEEKVRQMTDKLERIEEELRDTQKKMMQTENDLDKAQEDLSTANSNLEEKEKKVQEAEAEVAALNRRMTLLEEELERAEERLKLATAKLEEATHTADESERVRKVMENRSFQDEERANTVESQLKEAQMLAEEADRKYDEVARKLTMVEADLERAEERAETGENKIVELEEELRVVGNNLKSLEVSEEKALQREDSYEEQIRTVSARLKEAETRAEFAERSVQKLQKEVDRLEDELVHEKERYKSISEELDQTFQELSGY
notes: also called fish parasite tropomyosin
B2: Bla g 7 (German cockroach tropomyosin) (natural protein, Blattella germanica, UniProt Q9NG56 1-284, looked up)
chain: MDAIKKKMQAMKLEKDNAMDRALLCEQQARDANIRAEKAEEEARSLQKKIQQIENDLDQTMEQLMQVNAKLDEKDKALQNAESEVAALNRRIQLLEEDLERSEERLATATAKLAEASQAADESERARKILESKGLADEERMDALENQLKEARFMAEEADKKYDEVARKLAMVEADLERAEERAETGESKIVELEEELRVVGNNLKSLEVSEEKANLREEEYKQQIKTLNTRLKEAEARAEFAERSVQKLQKEVDRLEDELVHEKEKYKYICDDLDMTFTELIGN

Experiments:
Assay in all cases: SEC-MALS; purified recombinant tropomyosin, neutral pH (pH 7.4), constant temperature of 25°C; molar mass from the peaks
[1] = target: Der p 10 (house dust mite tropomyosin) (Dermatophagoides pteronyssinus)
[2] = target: Pen m 1 (black tiger shrimp tropomyosin) (Penaeus monodon)
[3] = target: the molecule itself

Molecule | stoichiometry N [3] | further results
Der p 10 (house dust mite tropomyosin) (natural protein) | – | stoichiometry N [1]: 2
Pen m 1 (black tiger shrimp tropomyosin) (natural protein) | – | stoichiometry N [2]: 2
B1 | 2 | –
B2 | 2 | –
